Assay results from paper PMC2709225 (Nature structural & molecular biology, 2009).

Target: the molecule itself
Assay: SEC-MALS

B1: stabilised full-length ectodomain of human hedgehog-interacting protein HIP (eHIPS) (domain or fragment, UniProt Q96QV1-1 56-670, looked up)
chain: MSQLELLSGGEMLCGGFYPRLSCCLRSDSPGLGRLENKIFSVTNNTECGKLLEEIKCALCSPHSQSLFHSPEREVLERDLVLPLLCKDYCKEFFYTCRGHIPGFLQTTADEFCFYYARKDGGLCFPDFPRKQVAGPASNYLDQMEEYDKVEEISAAHKHNCFCIQEVVSGLRQPVGALHSGDGSQRLFILEKEGYVKILTPEGEIFKEPYLDIHKLVQSGIKGGDERGLLSLAFHPNYKKNGKLYVSYTTNQERWAIGPHDHILRVVEYTVSRKNPHQVDLRTARVFLEVAELHRKHLGGQLLFGPDGFLYIILGDGMITLDDMEEMDGLSDFTGSVLRLDVDTDMCNVPYSIPRSNPHFNSTNQPPEVFAHGLHDPGRCAVDRHPTDININLTILCSDSNGKNRSSARILQIIKGKDYESEPSLLEFKPFSNGPLVGGFVYRGCQSERLYGSYVFGDRNGNFLTLQQSPVTKQWQEKPLCLGTSGSCRGYFSGHILGFGEDELGEVYILSSSKSMTQTHNGKLYKIVDPKRPLMPEECRATVQPAQTLTSECSRLCRNGYCTPTGKCCCSPGWEGDFCRTAKCEPACRHGGVCVRPNKCLCKKGYLGPQCEQVD
modifications: enzymatically biotinylated within an engineered C-terminal tag (form attached to the SPR surface); fully glycosylated for MALS
stoichiometry N: 2
